Measurements as given in paper PMC8258697 (The Journal of Biological Chemistry, 2021).
No end group written: not given here. *: point of attachment. Biotin = O=C1N[C@H]2[C@H](CS[C@H]2CCCCC(=O)*)N1

T1: label-free PPARγ LBD (human, UniProt P37231-1 234-505)
T1 construct: PPARγ isoform 2 LBD, human, UniProt P37231-1, residues 234-505; also called PPARγ LBD without sGFP-tag; PPARγ LBD devoid of any label; source: E. coli T7 express, coexpressed with GroEL/ES, purified (Ni IMAC, TEV, reverse IMAC, SEC); not shown: His10, N-terminal, cleaved
T1 sequence (looked up): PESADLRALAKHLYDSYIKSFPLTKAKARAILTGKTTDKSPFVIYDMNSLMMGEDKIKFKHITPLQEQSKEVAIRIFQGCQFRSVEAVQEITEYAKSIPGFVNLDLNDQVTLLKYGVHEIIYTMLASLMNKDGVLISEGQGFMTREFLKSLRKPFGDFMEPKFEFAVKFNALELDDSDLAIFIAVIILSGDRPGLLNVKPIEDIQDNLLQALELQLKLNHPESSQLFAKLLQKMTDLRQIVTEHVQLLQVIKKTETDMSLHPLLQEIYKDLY

T2: sGFP-PPARγ LBD (human, UniProt P37231-1 234-505)
T2 construct: PPARγ isoform 2 LBD, human, UniProt P37231-1, residues 234-505; also called PPARγ coupled to sGFP; source: E. coli T7 express, coexpressed with GroEL/ES, purified (Ni IMAC, TEV, reverse IMAC, SEC); not shown: His10, N-terminal, cleaved; sGFP, N-terminal, kept
T2 sequence (looked up): T1 sequence (looked up)

B1: biotinylated CBP-1 cofactor peptide (CREB-binding protein coactivator motif 1) (peptide)
peptide: Biotin-NLVPDAASKHKQLSELLRGGSGS
notes: coupled to Tb-streptavidin in the assay; also called CBP-1 peptide; CBP-derived peptide; source: bought: Eurogentec GmbH
B2: free RXRα total mutant LBD (unlabeled) (domain or fragment, human, UniProt P19793-1 223-462, looked up)
chain: TSSANEDMPVERILEAELAVEPKTETYVEANMGLNPSSPNDPVTNICQAADKQLFTLTEWAERIPHFSELPLDDQTILLRAGWNELLIASFSHRSIAVKDGILLATGLHVHRNSAHSAGVGAIFDRVLTELVSKMRDMQMDKTELGCLRAIVLFNPDSKGLSNPAEVEALREKVYASLEAYCKHKYPEQPGRFAKLLLRLPALRSIGLKCLEHLFFFKLIGDTPIDTYLMRMLEAPHQMT
notes: retinoid X receptor alpha (RXRα) LBD, human, residues 223-462 (pMal construct), five AF-2 mutations; also called unlabeled recruitment-incapable RXRα LBD (total mutant); unlabeled mutant RXRα LBD; source: E. coli T7 express, coexpressed with GroEL/ES, purified (Ni IMAC, MBP-TEV, amylose flow through, SEC); not shown: MBP, N-terminal, cleaved; His8, N-terminal, cleaved
B3: sGFP-PPARγ LBD:RXRα total mutant LBD (unlabeled) heterodimer (complex, human)
chain 1: T1 sequence (looked up)
chain 2: B2 chain
notes: PPARγ isoform 2 LBD, human, UniProt P37231-1, residues 234-505; RXRα LBD, human, residues 223-462, five AF-2 mutations; also called LBD:LBD heterodimer with RXRα; source: mixed from the purified E. coli proteins (100 nM sGFP-PPARγ LBD, RXRα total mutant LBD titrated); not shown: His10, N-terminal, cleaved; sGFP, N-terminal, kept; MBP, N-terminal, cleaved; His8, N-terminal, cleaved

How the values were obtained:
Conditions in all cases: both partners purified
label-free PPARγ LBD = biological target: T1, label-free PPARγ LBD; assay: AlphaScreen or HTRF; heterodimer coactivator recruitment; 100 nM label-free PPARγ LBD, 2 μM sGFP-RXRα LBD total mutant, 12 nM biotinylated CBP-1 on 12 nM Tb-SA; rosiglitazone titrated (also with 50 μM SR11237); 0.1% CHAPS, 1% DMSO, RT
sGFP-PPARγ LBD = biological target: T2, sGFP-PPARγ LBD; assay: AlphaScreen or HTRF; unlabeled RXRα total mutant LBD titrated (up to 8 μM) against 100 nM sGFP-PPARγ LBD, 12 nM Tb-SA, 12 nM biotinylated CBP-1; no ligand (or SR11237 at ≤1 nM)
[1] = biological target: B1; assay: as above

B1
binding result (label-free PPARγ LBD): binds

B2
binding result (sGFP-PPARγ LBD): binds

B3
CBP-1 recruitment relative to that seen with rosiglitazone (%) [1]: ≤ 5%
